Test results as given in the supplement of paper PMC7877785.
± gives the uncertainty stated by the source.

Experiment: self-splicing fitness, log relative to wild type (ln ratio); higher = more splicing; Tetrahymena group I intron in knt gene, E. coli kanamycin selection, DiMSum; sequences stand for … in CUCUCU…GGAGGGAAAAGUUAUCAGGCAUGCACCUGGUAGCUAGUCUUUAAACCAAUAGAUUGCAUCGGUUUAAAAGGCAAGACCGUCAAAUUGCGGGAAAGGGGUCAACAGCCGUUCAGUACCAAGUCUCAGGGGAAACUUUGAGAUGGCCUUGCAAAGGGUAUGGUAAUAAGCUGACGGACAUGGUCCUAACCACGCAGCCAAGUCCUAAGUCAACAGAUCUUCUGUUGAUAUGGAUGCAGUUCACAGACUAAAUGUCGGUCGGGGAAGAUGUAUUCUUCUCAUAAGAUAUAGUCGGACCUCUCCUUAAUGGGAGCUAGCGGAUGAAGUGAUGCAACACUGGAGCCGCUGGGAACUAAUUUGUAUGCGAAAGUAUAUUGAUUAGUUUUGGAGUACUCGUGGUCG
How it was run: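 Fitness was computed with DiMSum as the error-weighted combination of replicate fold changes, kanamycin versus none, each normalised to wild type. The library randomised all eight intron nucleotides of the P1ex region, with the intron placed in the knt kanamycin-resistance gene on pET-22b(+) in E. coli BL21(DE3). Six replicate transformations were grown overnight at 37°C or 30°C on LB agar with or without 25 μg/mL kanamycin, plus 100 μg/mL carbenicillin, 50 μM IPTG and 0.2% rhamnose. Pooled colonies were amplicon-sequenced on an Illumina HiSeq 2500.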

| Sequence | self-splicing fitness (ln) (30 °C) | self-splicing fitness (ln) (37 °C) |
| --- | --- | --- |
| UACGAGCAAUAUUACGAACU | -3.46 ± 0.48 | -2.4 ± 0.24 |
| UUGAAGCAAUAUUACGUGGG | -2.69 ± 0.099 | -1.35 ± 0.1 |
| UUCUAGCAAUAUUACGCUUA | -1.24 ± 0.12 | -0.839 ± 0.14 |
| AUACAGCAAUAUUACGGCGU | -0.145 ± 0.065 | 0.665 ± 0.076 |
| CGUAAGCAAUAUUACGUUCU | -1.61 ± 0.13 | -0.0321 ± 0.12 |
| GCUAAGCAAUAUUACGAGAA | -0.77 ± 0.47 | -1.64 ± 0.31 |
| UGAUAGCAAUAUUACGAAGC | -3.24 ± 0.32 |  |
| CGUUAGCAAUAUUACGAUUA | -2.16 ± 0.26 | -1.14 ± 0.22 |
| CUCUAGCAAUAUUACGUCCA |  | -2.12 ± 0.4 |
| AGCCAGCAAUAUUACGCGGC | -3.54 ± 0.25 | -3.42 ± 0.31 |
| CCAAAGCAAUAUUACGACUU | -3.77 ± 0.16 | -3.01 ± 0.2 |
| UAUUAGCAAUAUUACGACAU | -1.63 ± 0.017 | -0.705 ± 0.035 |
| CAGCAGCAAUAUUACGGGUG | -1.35 ± 0.082 | -0.904 ± 0.085 |
| CGGGAGCAAUAUUACGACUG | -3.19 ± 0.22 | -1.55 ± 0.18 |
| ACAAAGCAAUAUUACGUCCA | -1.62 ± 0.097 | -0.403 ± 0.1 |
| ACCGAGCAAUAUUACGUGAC | -4.19 ± 0.34 | -1.4 ± 0.15 |
| GUACAGCAAUAUUACGUGUC | -3.39 ± 0.2 | -2.06 ± 0.2 |
| UUGCAGCAAUAUUACGUCCC |  | -1.44 ± 0.37 |
| UAUUAGCAAUAUUACGUAUU | -3.62 ± 0.17 | -1.25 ± 0.14 |
| CACCAGCAAUAUUACGGAGU | -3.74 ± 0.18 | -2.54 ± 0.15 |
| AAGCAGCAAUAUUACGCUCG | -1.67 ± 0.15 | 0.286 ± 0.14 |
| UGGAAGCAAUAUUACGCCUA | 0.049 ± 0.092 | -0.109 ± 0.12 |
| GGCCAGCAAUAUUACGCCUA | -1.05 ± 0.15 | -1.05 ± 0.15 |
| GUCCAGCAAUAUUACGCUUC | -1.38 ± 0.083 | -0.138 ± 0.11 |
| GCAUAGCAAUAUUACGAUUU | -1.27 ± 0.092 | 0.225 ± 0.14 |
| ACACAGCAAUAUUACGAAAU | -2.47 ± 0.13 | -1.87 ± 0.12 |

| Sequence | self-splicing fitness (ln) (30 °C) | self-splicing fitness (ln) (37 °C) |
| --- | --- | --- |
| CGUCAGCAAUAUUACGCCUU |  | -1.94 ± 0.2 |
| CAGAAGCAAUAUUACGUUAA | -3.62 ± 0.27 | -3.02 ± 0.43 |
| UAGUAGCAAUAUUACGCCAA | -3.28 ± 0.29 | -2.02 ± 0.24 |
| GGCAAGCAAUAUUACGUGGU | -2.43 ± 0.085 | -1.57 ± 0.075 |
| AAGGAGCAAUAUUACGCACC |  | -1.22 ± 0.3 |
| CUUAAGCAAUAUUACGCCGU | -3.13 ± 0.34 | -1.88 ± 0.37 |
| UGUAAGCAAUAUUACGCUAG | -1.82 ± 0.1 | -0.0644 ± 0.099 |
| UGACAGCAAUAUUACGGAGG | -4.41 ± 0.29 | -3.93 ± 0.21 |
| ACAGAGCAAUAUUACGAAGC | -2.69 ± 0.26 |  |
| CACAAGCAAUAUUACGGAAU | -4.1 ± 0.21 | -2.28 ± 0.16 |
| AGUGAGCAAUAUUACGUGUU | -4.67 ± 0.46 | -3.04 ± 0.25 |
| CCACAGCAAUAUUACGAGGU | -4.41 ± 0.2 | -2.81 ± 0.16 |
| GAUAAGCAAUAUUACGCUGG | -2.66 ± 0.14 | -2.04 ± 0.2 |
| AAAGAGCAAUAUUACGGAUC | -2.89 ± 0.2 | -2.56 ± 0.15 |
| GCACAGCAAUAUUACGUCAC | -3.68 ± 0.26 | -2.42 ± 0.32 |
| CAGAAGCAAUAUUACGAGUG | -1.63 ± 0.067 | -0.988 ± 0.091 |
| AAGUAGCAAUAUUACGGGAC | -2.43 ± 0.11 | -2.83 ± 0.21 |
| AUCGAGCAAUAUUACGCGAU | -2.06 ± 0.27 |  |
| ACGAAGCAAUAUUACGAUAG | -3.09 ± 0.23 | -1.87 ± 0.21 |
| GAAUAGCAAUAUUACGACGA | -0.436 ± 0.36 | 0.000314 ± 0.24 |
| GUGCAGCAAUAUUACGUAAU | -0.833 ± 0.06 | 0.129 ± 0.079 |
| UGUUAGCAAUAUUACGAAUC | -2.97 ± 0.48 |  |
| AAUGAGCAAUAUUACGAAAA | -3.58 ± 0.4 | -2.1 ± 0.27 |
| AGCAAGCAAUAUUACGUCGU | -1.72 ± 0.12 | -0.897 ± 0.16 |
| CCCGAGCAAUAUUACGGUUC | -3.62 ± 0.2 | -1.98 ± 0.2 |
| UAUGAGCAAUAUUACGCUCU | -3.16 ± 0.41 |  |

| Sequence | self-splicing fitness (ln) (30 °C) | self-splicing fitness (ln) (37 °C) |
| --- | --- | --- |
| UACUAGCAAUAUUACGGAGC | -1.89 ± 0.25 | -2.56 ± 0.3 |
| AGCAAGCAAUAUUACGGAAG | -3.35 ± 0.25 | -2.32 ± 0.26 |
| AUUGAGCAAUAUUACGGGUG | -4.2 ± 0.28 | -2.2 ± 0.3 |
| UAUCAGCAAUAUUACGCCUC |  | -1.96 ± 0.47 |
| CUCAAGCAAUAUUACGUUCU | -3.9 ± 0.19 | -2.68 ± 0.17 |
| GUCUAGCAAUAUUACGCUUU | -0.366 ± 0.066 | -0.192 ± 0.08 |
| AGACAGCAAUAUUACGGACU | -0.583 ± 0.068 | -0.3 ± 0.087 |
| CCGCAGCAAUAUUACGCCUA | -3.92 ± 0.31 | -3.58 ± 0.3 |
| ACUCAGCAAUAUUACGUAGG | -0.866 ± 0.06 | -0.368 ± 0.092 |
| ACUAAGCAAUAUUACGAUGU | -1.62 ± 0.1 | -1.38 ± 0.13 |
| UCUCAGCAAUAUUACGGAUG | -2.78 ± 0.12 | -0.753 ± 0.13 |
| AAACAGCAAUAUUACGUCGG | -2.8 ± 0.11 | -1.13 ± 0.11 |
| ACUGAGCAAUAUUACGUGUG | -2.22 ± 0.11 | -2.13 ± 0.16 |
| CUUAAGCAAUAUUACGUGGG | -4.03 ± 0.17 | -2.26 ± 0.12 |
| UCUGAGCAAUAUUACGUUCU | -3.98 ± 0.3 | -2.89 ± 0.31 |
| CGUCAGCAAUAUUACGGCCG | -0.623 ± 0.12 | 0.482 ± 0.15 |
| GCUCAGCAAUAUUACGGCCA | -1.77 ± 0.15 | -0.805 ± 0.16 |
| CACGAGCAAUAUUACGACGG | -1.6 ± 0.13 | -0.392 ± 0.14 |
| CCGUAGCAAUAUUACGGGCA | -3.76 ± 0.42 | -2.14 ± 0.23 |
| GUGCAGCAAUAUUACGAGCC | -1.65 ± 0.2 |  |
| GGAGAGCAAUAUUACGGGCA | -2.49 ± 0.24 | -1.22 ± 0.21 |
| UUAAAGCAAUAUUACGCGGG | -0.482 ± 0.11 | -1.29 ± 0.13 |
| AGCAAGCAAUAUUACGCAAG | -2.4 ± 0.2 | -2.11 ± 0.26 |
| UUACAGCAAUAUUACGAAUG | -1.46 ± 0.094 | -0.991 ± 0.14 |
| CGUUAGCAAUAUUACGACAA | -1.99 ± 0.17 | -1.15 ± 0.17 |
| GAAUAGCAAUAUUACGUAUC | -1.7 ± 0.13 | -1.75 ± 0.2 |
